Results taken from patent US20120172295A1 (INDIANA UNIVERSITY RESEARCH AND TECHNOLOGY, published 2012).
Where two headings read alike, the source gives them in different places. Positions of bridges follow the written chain, without caps; N, C: chain ends. Non-standard residues stand in square brackets, D forms with d. Groups on a side chain read outwards from the residue. No end group written: not given here. *: point of attachment. Palmitoyl = CCCCCCCCCCCCCCCC(=O)*; Aib = CC(C)(N)C(=O)O

How the values were obtained:
Test in all cases: cell-based or functional assay
glucagon receptor [1] = target: T1, glucagon receptor (UniProt P47871 26-477, limits assumed)
T1 sequence (P47871 26-477 limits assumed): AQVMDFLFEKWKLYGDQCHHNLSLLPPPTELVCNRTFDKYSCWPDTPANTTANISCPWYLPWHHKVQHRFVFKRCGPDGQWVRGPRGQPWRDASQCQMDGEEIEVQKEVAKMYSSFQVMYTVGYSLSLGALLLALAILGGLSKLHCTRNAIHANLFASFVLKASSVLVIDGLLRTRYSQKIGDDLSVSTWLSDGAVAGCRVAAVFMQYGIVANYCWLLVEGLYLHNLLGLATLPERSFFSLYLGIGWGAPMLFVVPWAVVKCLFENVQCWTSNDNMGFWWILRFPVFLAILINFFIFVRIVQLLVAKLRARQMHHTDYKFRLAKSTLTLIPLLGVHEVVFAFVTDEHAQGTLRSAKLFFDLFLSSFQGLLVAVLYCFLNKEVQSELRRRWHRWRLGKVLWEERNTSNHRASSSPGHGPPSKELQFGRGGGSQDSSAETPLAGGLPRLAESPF

GLP-1 receptor [2] = target: T2, GLP-1 receptor (UniProt P43220 24-463, limits assumed)
GLP-1 receptor [3] = target: T2, GLP-1 receptor; remark: listed apart in the source
glucagon receptor [4] = target: T1, glucagon receptor; remark: listed apart in the source
GLP-1 receptor [5] = target: T2, GLP-1 receptor; remark: listed apart in the source
glucagon receptor [6] = target: T1, glucagon receptor; remark: listed apart in the source
GLP-1 receptor [7] = target: T2, GLP-1 receptor; remark: listed apart in the source
glucagon receptor [8] = target: T1, glucagon receptor; remark: listed apart in the source
GLP-1 receptor [9] = target: T2, GLP-1 receptor; remark: listed apart in the source
glucagon receptor [10] = target: T1, glucagon receptor; remark: listed apart in the source
glucagon receptor [11] = target: T1, glucagon receptor; remark: listed apart in the source
GLP-1 receptor [12] = target: T2, GLP-1 receptor; remark: listed apart in the source
glucagon receptor [13] = target: T1, glucagon receptor; remark: listed apart in the source
GLP-1 receptor [14] = target: T2, GLP-1 receptor; remark: listed apart in the source
GIP receptor [15] = target: T3, GIP receptor (UniProt P48546 22-466)
T3 sequence (looked up): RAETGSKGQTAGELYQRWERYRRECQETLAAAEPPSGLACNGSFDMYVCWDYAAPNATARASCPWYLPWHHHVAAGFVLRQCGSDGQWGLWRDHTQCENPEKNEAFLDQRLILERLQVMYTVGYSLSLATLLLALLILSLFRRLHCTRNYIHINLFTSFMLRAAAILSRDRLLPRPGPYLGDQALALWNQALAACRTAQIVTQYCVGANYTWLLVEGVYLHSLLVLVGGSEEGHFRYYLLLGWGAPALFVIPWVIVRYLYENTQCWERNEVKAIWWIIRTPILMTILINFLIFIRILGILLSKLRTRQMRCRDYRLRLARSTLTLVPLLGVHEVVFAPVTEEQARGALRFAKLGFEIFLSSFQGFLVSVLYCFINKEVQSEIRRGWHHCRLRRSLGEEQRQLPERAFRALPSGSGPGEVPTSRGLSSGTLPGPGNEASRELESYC

glucagon receptor [16] = target: T1, glucagon receptor; remark: listed apart in the source
GLP-1 receptor [17] = target: T2, GLP-1 receptor; remark: listed apart in the source
GIP receptor [18] = target: T3, GIP receptor; remark: listed apart in the source
glucagon receptor [19] = target: T1, glucagon receptor; remark: listed apart in the source
GLP-1 receptor [20] = target: T2, GLP-1 receptor; remark: listed apart in the source
GIP receptor [21] = target: T3, GIP receptor; remark: listed apart in the source
glucagon receptor [22] = target: T1, glucagon receptor; remark: listed apart in the source
GLP-1 receptor [23] = target: T2, GLP-1 receptor; remark: listed apart in the source

B1: Glucagon (1-29a) Aib2 Lys10-Trp-C16 Aib16 Aib20 Cys24-40 kD (peptide)
peptide: H[Aib]QGTFTSDK([Trp-Palmitoyl])SKYLD[Aib]RRA[Aib]DFVC(PEG 40 kDa)WLMNT-NH2
EC50 (glucagon receptor [1]): 2.37 nM | EC50 (GLP-1 receptor [2]): 0.6 nM

B2: E15, E16 Gluc-NH2 (peptide)
peptide: HSQGTFTSDYSKYLEERRAQDFVQWLMNT-NH2
Percent Potency Relative to Native Ligand (GLP-1 receptor [3]): 9.2%

B3: Glucagon (1-29a) Aib2 Aib16 (peptide)
peptide: H[Aib]QGTFTSDYSKYLD[Aib]RRAQDFVQWLMNT-NH2
modifications: N-terminus assumed
SMILES: CSCC[C@H](NC(=O)[C@H](CC(C)C)NC(=O)[C@H](Cc1c[nH]c2ccccc12)NC(=O)[C@H](CCC(N)=O)NC(=O)[C@@H](NC(=O)[C@H](Cc1ccccc1)NC(=O)[C@H](CC(=O)O)NC(=O)[C@H](CCC(N)=O)NC(=O)[C@H](C)NC(=O)[C@H](CCCNC(=N)N)NC(=O)[C@H](CCCNC(=N)N)NC(=O)C(C)(C)NC(=O)[C@H](CC(=O)O)NC(=O)[C@H](CC(C)C)NC(=O)[C@H](Cc1ccc(O)cc1)NC(=O)[C@H](CCCCN)NC(=O)[C@H](CO)NC(=O)[C@H](Cc1ccc(O)cc1)NC(=O)[C@H](CC(=O)O)NC(=O)[C@H](CO)NC(=O)[C@@H](NC(=O)[C@H](Cc1ccccc1)NC(=O)[C@@H](NC(=O)CNC(=O)[C@H](CCC(N)=O)NC(=O)C(C)(C)NC(=O)[C@@H](N)Cc1c[nH]cn1)[C@@H](C)O)[C@@H](C)O)C(C)C)C(=O)N[C@@H](CC(N)=O)C(=O)N[C@H](C(N)=O)[C@@H](C)O
EC50 (glucagon receptor [4]): 0.09 nM | EC50 (GLP-1 receptor [5]): 0.1 nM

B4: Glucagon (1-29a) Aib2 Lys10-Trp-C16 Aib16 Aib20 Cys24 (peptide)
peptide: H[Aib]QGTFTSDK([Trp-Palmitoyl])SKYLD[Aib]RRA[Aib]DFVCWLMNT-NH2
modifications: N-terminus assumed
SMILES: CCCCCCCCCCCCCCCC(=O)N[C@@H](Cc1c[nH]c2ccccc12)C(=O)NCCCC[C@H](NC(=O)[C@H](CC(=O)O)NC(=O)[C@H](CO)NC(=O)[C@@H](NC(=O)[C@H](Cc1ccccc1)NC(=O)[C@@H](NC(=O)CNC(=O)[C@H](CCC(N)=O)NC(=O)C(C)(C)NC(=O)[C@@H](N)Cc1c[nH]cn1)[C@@H](C)O)[C@@H](C)O)C(=O)N[C@@H](CO)C(=O)N[C@@H](CCCCN)C(=O)N[C@@H](Cc1ccc(O)cc1)C(=O)N[C@@H](CC(C)C)C(=O)N[C@@H](CC(=O)O)C(=O)NC(C)(C)C(=O)N[C@@H](CCCNC(=N)N)C(=O)N[C@@H](CCCNC(=N)N)C(=O)N[C@@H](C)C(=O)NC(C)(C)C(=O)N[C@@H](CC(=O)O)C(=O)N[C@@H](Cc1ccccc1)C(=O)N[C@H](C(=O)N[C@@H](CS)C(=O)N[C@@H](Cc1c[nH]c2ccccc12)C(=O)N[C@@H](CC(C)C)C(=O)N[C@@H](CCSC)C(=O)N[C@@H](CC(N)=O)C(=O)N[C@H](C(N)=O)[C@@H](C)O)C(C)C
EC50 (glucagon receptor [1]): 2.06 nM | EC50 (GLP-1 receptor [2]): 1.15 nM

B5: AIB2, AIB16, K10(C16), K30 Glucagon Amide (peptide)
peptide: H[Aib]QGTFTSDK(Palmitoyl)SKYLD[Aib]RRAQDFVCWLMNTK-NH2
modifications: N-terminus assumed
SMILES: CCCCCCCCCCCCCCCC(=O)NCCCC[C@H](NC(=O)[C@H](CC(=O)O)NC(=O)[C@H](CO)NC(=O)[C@@H](NC(=O)[C@H](Cc1ccccc1)NC(=O)[C@@H](NC(=O)CNC(=O)[C@H](CCC(N)=O)NC(=O)C(C)(C)NC(=O)[C@@H](N)Cc1c[nH]cn1)[C@@H](C)O)[C@@H](C)O)C(=O)N[C@@H](CO)C(=O)N[C@@H](CCCCN)C(=O)N[C@@H](Cc1ccc(O)cc1)C(=O)N[C@@H](CC(C)C)C(=O)N[C@@H](CC(=O)O)C(=O)NC(C)(C)C(=O)N[C@@H](CCCNC(=N)N)C(=O)N[C@@H](CCCNC(=N)N)C(=O)N[C@@H](C)C(=O)N[C@@H](CCC(N)=O)C(=O)N[C@@H](CC(=O)O)C(=O)N[C@@H](Cc1ccccc1)C(=O)N[C@H](C(=O)N[C@@H](CS)C(=O)N[C@@H](Cc1c[nH]c2ccccc12)C(=O)N[C@@H](CC(C)C)C(=O)N[C@@H](CCSC)C(=O)N[C@@H](CC(N)=O)C(=O)N[C@H](C(=O)N[C@@H](CCCCN)C(N)=O)[C@@H](C)O)C(C)C
EC50 (glucagon receptor [6]): 0.761 nM | EC50 (20% human plasma) (glucagon receptor [6]): 0.313 nM | EC50 (20% human plasma) (GLP-1 receptor [7]): 0.017 nM

B6: E3, E16 Gluc-NH2 (peptide)
peptide: HSEGTFTSDYSKYLDERRAQDFVQWLMNT-NH2
Percent Potency Relative to Native Ligand (glucagon receptor [8]): 1.6% | Percent Potency Relative to Native Ligand (GLP-1 receptor [9]): 28.8%

B7: Peptide V (peptide)
peptide: HSEGTFTSDYSKYLDEQAAKEFIC(PEG 20 kDa)WLMNT-NH2
glucagon agonism (glucagon receptor [10]): > 10 fold

B8: Glucagon R12 K29 (peptide)
peptide: HSQGTFTSDYSRYLDSRRAQDFVQWLMNK
cAMP induction EC50 (glucagon receptor [11]): 0.81 nM | cAMP induction EC50 (GLP-1 receptor [12]): 0.41 nM

B9: peptide of SEQ ID NO: 555 (peptide)
peptide: YSQGTFTSDYSKYLDEQAAKEFVNWLMNGGPSSGAPPPS-NH2
modifications: lactam 16-20; N-terminus assumed
SMILES: CSCC[C@H](NC(=O)[C@H](CC(C)C)NC(=O)[C@H](Cc1c[nH]c2ccccc12)NC(=O)[C@H](CC(N)=O)NC(=O)[C@@H](NC(=O)[C@H](Cc1ccccc1)NC(=O)[C@H](CCC(=O)O)NC(=O)[C@@H]1CCCCNC(=O)CC[C@H](NC(=O)[C@H](CC(=O)O)NC(=O)[C@H](CC(C)C)NC(=O)[C@H](Cc2ccc(O)cc2)NC(=O)[C@H](CCCCN)NC(=O)[C@H](CO)NC(=O)[C@H](Cc2ccc(O)cc2)NC(=O)[C@H](CC(=O)O)NC(=O)[C@H](CO)NC(=O)[C@@H](NC(=O)[C@H](Cc2ccccc2)NC(=O)[C@@H](NC(=O)CNC(=O)[C@H](CCC(N)=O)NC(=O)[C@H](CO)NC(=O)[C@@H](N)Cc2ccc(O)cc2)[C@@H](C)O)[C@@H](C)O)C(=O)N[C@@H](CCC(N)=O)C(=O)N[C@@H](C)C(=O)N[C@@H](C)C(=O)N1)C(C)C)C(=O)N[C@@H](CC(N)=O)C(=O)NCC(=O)NCC(=O)N1CCC[C@H]1C(=O)N[C@@H](CO)C(=O)N[C@@H](CO)C(=O)NCC(=O)N[C@@H](C)C(=O)N1CCC[C@H]1C(=O)N1CCC[C@H]1C(=O)N1CCC[C@H]1C(=O)N[C@@H](CO)C(N)=O
EC50 (glucagon receptor [13]): 0.044 nM | EC50 (GLP-1 receptor [14]): 0.062 nM

B10: mt-364 (peptide)
peptide: HXQGTFTSDYSKYLDEQAAKEFIAWLMNGGPSSGAPPPSK
modifications: acylated Lys at 40
% Relative activity (GIP receptor [15]): 15.7% | % Relative activity (glucagon receptor [16]): 350% | EC50 (glucagon receptor [16]): 0.0183 nM | % Relative activity (GLP-1 receptor [17]): 355% | EC50 (GLP-1 receptor [17]): 0.007 nM | % Relative activity (GIP receptor [18]): 15.7% | % Relative activity (glucagon receptor [19]): 350% | % Relative activity (GLP-1 receptor [20]): 355% | % Relative activity (GIP receptor [21]): 15.7% | % Relative activity (glucagon receptor [22]): 350% | % Relative activity (GLP-1 receptor [23]): 355%

B11: mt-358 (peptide)
peptide: Y[Aib]QGTFISDYSIYLDKQAA[Aib]EFVNWLLAGGPSSGAPPPSK(Palmitoyl)-NH2
% Relative activity (GIP receptor [18]): 314% | % Relative activity (glucagon receptor [19]): 710% | % Relative activity (GLP-1 receptor [20]): 11.9%
